From patent US20180280504A1, “GLYCAN-INTERACTING COMPOUNDS AND METHODS OF USE” (SIAMAB THERAPEUTICS, INC., priority 2014, published 2018) come the findings set out here.

The nature of data set [1]: Glycan array, Tn and other glycans. Format: binding. The note with it: glycan microarray. How it is done: Optimized glycan arrays comprise 71 chemically synthesized and well-defined glycans, most of which comprise Neu5Ac and Neu5Gc glycan pairs.
300 ml of epoxy blocking buffer is prepared by combining 15 ml of 2 M Tris buffer (pH 8) with 0.9 ml of 16.6 M ethanolamine and 284.1 ml of distilled water. The solution was brought to a final pH of 9.0 with HCl. The solution is filtered using a 0.2 μM nitrocellulose membrane. The epoxy buffer solution as well as 1 L of distilled water are pre-warmed to 50° C. Glass slides are arranged in a slide holder and quickly submerged in a staining tub with the warmed epoxy blocking buffer. Slides are incubated in the epoxy blocking buffer for 1 hour at 50° C. with periodic shaking to deactivate epoxy binding sites. Next, slides are rinsed and blocked with PBS with 1% OVA at 25° C. for one hour. Serum samples with polyclonal antibodies (1:1000) or purified monoclonal antibodies (1 ug/mL), are diluted in PBS with 1% OVA and added to the glycan array for one hour at 25° C. After extensive washing, binding of antibodies are detected by incubating glycan microarray slides with Cy3-conjugated anti-mouse IgG (Jackson Immunoresearch, West Grove, Pa.) for one hour. Slides are then washed extensively, dried and scanned with a Genepix 4000B scanner (Laser at 100%; gain at 350; 10 μm pixels). […]

Data set [2] in a line: E3-STn allograft model, second round study, average body weight.
Protocol: 50 female Balb/cmice were inoculated with E3-STn cells to cause STn-expressing tumor formation when they were 5 weeks old. Mice were housed in individually ventilated microisolator cages, and maintained under pathogen-free conditions with irradiated feed and autoclaved water. […] Beginning on the first day of the study, body weight and tumor volumes were recorded twice weekly. 33 mice with mean tumor volume between 100 and 150 mm^3 were selected for randomization.
The average weight of mice in each treatment group was also determined on days 1, 5, 8, 12, 15,19, 22, 26, 29, 33, 36, 40, 43, 47 and 50 following the first administration of each test article (see the following Table). The percent gain or loss over initial weight values is listed in parentheses.
Data set [3] deals with COLO-205 Human Colon Adenocarcinoma Tumor Xenograft. As to the kind of experiment: COLO-205 human colon adenocarcinoma xenograft model, tumor volume. In kind it is in vivo, mouse. The note with it: 5 mg/kg i.p. once weekly. The text has this: To evaluate antibody drug conjugates (ADCs) as single agents in an COLO-205 Colon AdenocarcinomaTumor Xonograft model, 40 athymic nude female mice age range 6-8 weeks were randomly separated into four separate groups, one vehicle control and three ADC treatments, then maintained individually with food/water ad libitum (see the following Table).
Animals were inoculated in the subcutaneous right flank with 5×10^6 colon adenocarcinoma tumor cells (COLO-205) in matrigel, mean tumor size was 175-225 mm^3 at study initiation. Animals were given either vehicle or one of the antibody drug conjugates (5 mg/kg) by intraperitoneal injection once weekly. Tumor volume and percent body weight change were determined once weekly until study termination. The study was terminated when the tumor in the vehicle control animal reached a mean tumor weight >1500 mm^3. SE refers to “standard error.”
Background: In xenograft studies the graft and the host belong to different species.

Data set [4] deals with MDA-MB-231-STn Human Breast Tumor Xenograft. As to the kind of experiment: MDA-MB-231-STn xenograft model, clinical observations of tumors. Particulars: 5 mg/kg i.p. once weekly. In kind it is in vivo, mouse. How it is done:
(§1) Animals were inoculated in the subcutaneous right flank with 5×10^6 breast tumor cells (MDA-MB-231-STn) in matrigel, mean tumor size was 175-225 mm^3 at study initiation. Animals were given either vehicle or antibody drug conjugates (5 mg/kg) by intraperitoneal injection once weekly. Tumor volume and percent body weight change were determined once weekly until study termination. The study was terminated when the tumor in the vehicle control animal reached a mean tumor weight ≥1500 mm^3. SE refers to “standard error.”
Clinical observations of tumor shape, size and disposition were noted throughout the study.

For data set [5] the test system is unchanged. The data set can be described thus: MDA-MB-231-STn human breast cancer xenograft model, tumor volume. In kind it is in vivo, mouse. Particulars: 5 mg/kg i.p. once weekly.
Source text: To evaluate antibody drug conjugates (ADCs) as single agents in an MDA-MB-231-STn Human Breast Tumor Xenograft model, 40 ICR SCID female mice age range 6-8 weeks were randomly separated into four separate groups, one vehicle control and three ADC treatments, then maintained individually with food/water ad libitum (see the following Table).
as §1

B1: 18C7: anti-STn mouse monoclonal, IgG2c κ, from mouse #4436; VH SEQ ID NO: 4, VL SEQ ID NO: 5 (antibody, V domains shown)
VH: QVTLKESGPGILQPSQTLSLTCSFSGFSLSTFGMGVGWIRQPSGKGLEWLAHIWWDDDKYYNPALKSRLTISKDTSKNQVFLKIANVDTADTATYYCARIAYYYGSERDYWGQGTTLTVSS
VL: QIVLTQSPAIMSASPGEKVTMTCSASSSISYMHWYHQKPGTSPKRWIYDTSKLASGVPARFSGSGSGTSYSLTISSMEAEDAATYYCHQRSSYTFGGGTKLEIKR
As for B1, the “binding to Tn antigen or other glycans” value in data set [1] was “No binding”.

B2: 7G9: anti-STn mouse monoclonal, IgG2b κ, from mouse #4407; VH SEQ ID NO: 12, VL SEQ ID NO: 9 (antibody, V domains shown)
VH: QVQLKESGPGLVAPSQNLSITCTVSGFSLTSYGVNWVRQPPGKGLEWLGVIWGDGSTNYHSALISRLIISKENSKSQVFLKLNSLQTNDTATYYCTKGFVYWGQGTLVTVSA
VL: QIVLTQSPAIMSASPGEKVTMTCSASSSVSYMHWYQQKSGTSPKRWIFDTSKLASGVPARFSGSGSGTSYSLTISSMEAEDAATYYCQQWSSNLLTFGAGTKLELK
In the case of B2, the “Average Weight” value in data set [2] (day 1 of study) amounted to 18.3 g; in data set [2] (day 5 of study), 18.7 g; in data set [2] (day 8 of study), 19.4 g; in data set [2] (day 12 of study), 20.1 g; in data set [2] (day 15 of study), 20.4 g; in data set [2] (day 19 of study), 20.9 g. Further, the “Average Weight” value is 20.8 g in data set [2] (day 22 of study); 21.5 g in data set [2] (day 26 of study); 22.1 g in data set [2] (day 29 of study); 22.2 g in data set [2] (day 33 of study); 22.1 g in data set [2] (day 36 of study); 22.8 g in data set [2] (day 40 of study). Besides, the “Average Weight” value is given as 22.9 g in data set [2] (day 43 of study), 22.8 g in data set [2] (day 47 of study) and 23.8 g in data set [2] (day 50 of study). In addition, the “percent gain or loss over initial weight” value in data set [2] (day 5 of study) is reported as “(2.4) %”; in data set [2] (day 8 of study), “(6.5) %”; in data set [2] (day 12 of study) it was “(10.1) %”; in data set [2] (day 15 of study), “(12.0) %”; in data set [2] (day 19 of study), “(14.3) %”; in data set [2] (day 22 of study), “(14.1) %”. Besides, the “percent gain or loss over initial weight” value in data set [2] (day 26 of study) was “(17.8) %”; in data set [2] (day 29 of study), “(21.1) %”; in data set [2] (day 33 of study), “(21.4) %”; in data set [2] (day 36 of study), “(21.0) %”; in data set [2] (day 40 of study), “(25.0) %”; in data set [2] (day 43 of study), “(25.4) %”. For the same molecule, the entries for the “percent gain or loss over initial weight” value in data set [2] (day 47 of study) and in data set [2] (day 50 of study) were “(25.0) %” and “(30.2) %”, respectively. Further, in data set [2] (second round study), the “percent gain in weight as compared to vehicle control” value was “higher percent gain in weight”.

B3: S3F: 3F1 variable domains combined with IgG2a constant domains; heavy chain SEQ ID NO: 63, light chain SEQ ID NO: 64 (antibody)
heavy: QVQLQQSDAELVKPGASVKISCKASGYTFTDHAIHWVKQKPEQGLDWIGYISPGNGDIKYNEKFKDKVTLTADKSSSTACMHLNSLTSEDSAVYFCKRSLLALDYWGQGTTLTVSSAKTTAPSVYPLAPVCGDTTGSSVTLGCLVKGYFPEPVTLTWNSGSLSSGVHTFPAVLQSDLYTLSSSVTVTSSTWPSQSITCNVAHPASSTKVDKKIEPRGPTIKPCPPCKCPAPNLLGGPSVFIFPPKIKDVLMISLSPIVTCVVVDVSEDDPDVQISWFVNNVEVHTAQTQTHREDYNSTLRVVSALPIQHQDWMSGKEFKCKVNNKDLPAPIERTISKPKGSVRAPQVYVLPPPEEEMTKKQVTLTCMVTDFMPEDIYVEWTNNGKTELNYKNTEPVLDSDGSYFMYSKLRVEKKNWVERNSYSCSVVHEGLHNHHTTKSFSRTPGK
light: DIVMTQSHKFMSTSVGDRVSITCKASQDVGTNIAWYQQKPGRSPKVLIYSASTRHTGVPDRFTGSGSGTDFTLTISNVQSEDLTDYFCQQYSSFPLTFGVGTKLELKRADAAPTVSIFPPSSEQLTSGGASVVCFLNNFYPKDINVKWKIDGSERQNGVLNSWTDQDSKDSTYSMSSTLTLTKDEYERHNSYTCEATHKTSTSPIVKSFNRNEC
On to B3, for which the “tumor volume course after day 8” value in data set [3] (athymic nude mice) is “continued to show rapid increase in volume”. Besides, the “Tumor Volume” value in data set [3] (study day 1) was found to be 182.8 mm^3; in data set [3] (study day 5), 315.2 mm^3; in data set [3] (study day 8), 448.8 mm^3; in data set [3] (study day 10), 543.1 mm^3; in data set [3] (study day 15) it was 655.3 mm^3; in data set [3] (study day 19), 850.6 mm^3. In addition, the “Tumor Volume” value in data set [3] (study day 22) was 938.2 mm^3; in data set [3] (study day 25), 1001.4 mm^3; in data set [5] (day 1) it was 178.6 mm^3; in data set [5] (day 4), 194.3 mm^3; in data set [5] (day 8), 244.9 mm^3; in data set [5] (day 10) it was 301.0 mm^3. In addition, the “Tumor Volume” value in data set [5] (day 15) is recorded as 445.1 mm^3; in data set [5] (day 18), 609.7 mm^3; in data set [5] (day 23) it was 775.4 mm^3; in data set [5] (day 25), 972.7 mm^3. The “clinical observations of tumor shape, size and disposition” value in data set [4] is recorded as “fewer severe tumors with fluid secretion”. Moreover, the “total tumor volume course” value in data set [5] (ICR SCID mice) is on record as “increased at all time points”.
